Assay results reported in patent publication US20240368299A1 (JIANGSU KANION PHARMACEUTICAL, published 2024).

T1: CD73 on A549 cells (UniProt P21589 27-549, limits assumed)
T1 sequence (looked up): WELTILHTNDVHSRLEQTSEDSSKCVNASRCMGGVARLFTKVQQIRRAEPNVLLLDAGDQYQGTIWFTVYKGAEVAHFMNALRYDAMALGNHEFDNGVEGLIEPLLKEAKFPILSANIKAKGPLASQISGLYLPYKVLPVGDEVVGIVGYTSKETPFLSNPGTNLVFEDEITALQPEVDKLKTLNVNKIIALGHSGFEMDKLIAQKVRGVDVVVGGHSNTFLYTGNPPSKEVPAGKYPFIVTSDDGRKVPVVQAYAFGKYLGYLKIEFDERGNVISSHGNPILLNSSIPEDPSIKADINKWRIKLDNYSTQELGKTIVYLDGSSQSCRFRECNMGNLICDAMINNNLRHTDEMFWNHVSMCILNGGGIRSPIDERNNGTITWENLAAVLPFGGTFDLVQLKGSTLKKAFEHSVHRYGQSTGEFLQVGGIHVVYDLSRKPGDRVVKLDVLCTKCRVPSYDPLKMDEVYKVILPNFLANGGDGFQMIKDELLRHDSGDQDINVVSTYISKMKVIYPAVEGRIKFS

T2: recombinant human CD73 protein with C-terminal 6xHis tag (human, UniProt P21589 27-547, limits assumed)
T2 sequence: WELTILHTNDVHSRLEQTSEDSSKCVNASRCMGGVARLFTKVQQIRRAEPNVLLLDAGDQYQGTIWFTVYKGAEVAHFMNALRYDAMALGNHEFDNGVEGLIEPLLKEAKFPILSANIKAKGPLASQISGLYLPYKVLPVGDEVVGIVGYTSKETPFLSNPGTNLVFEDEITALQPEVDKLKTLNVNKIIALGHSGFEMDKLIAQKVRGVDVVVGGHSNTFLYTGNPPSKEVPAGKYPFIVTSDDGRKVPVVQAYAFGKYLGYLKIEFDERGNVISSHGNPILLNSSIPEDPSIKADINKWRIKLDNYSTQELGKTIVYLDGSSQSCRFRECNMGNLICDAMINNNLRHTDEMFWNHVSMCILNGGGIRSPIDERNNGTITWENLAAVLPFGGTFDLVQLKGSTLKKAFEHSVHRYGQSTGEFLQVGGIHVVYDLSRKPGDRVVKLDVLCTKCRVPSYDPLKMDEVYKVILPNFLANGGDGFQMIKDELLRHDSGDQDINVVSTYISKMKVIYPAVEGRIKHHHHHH

B1: anti-human CD73 monoclonal antibody 7-C10-Ba-C2 (antibody, V domains shown)
VH: EVQLQQSGPELVKPGASMKISCKASGYSFTGYTMNWVKQSHGKNLEWIGFITPYNGDTIYNQKFKGKATVTVDKSSSTAYMDLLSLTSEDSAVYYCAREGYDGGYFDYWGQGTTLTVSS
VL: DIQMTQSPASLSASVGETVTITCRASENIYSYLAWYQQKQGKSPQLLVYNTQTLAEGVPSRFSGSGSGTQFSLKINSLQPEDFGSYYCQHHYGTPMYPFGGGTKLEIK
notes: Mouse (BABL/c) hybridoma antibody purified from ascitic fluid; also called antibody of the present invention

Experiments:
[1] = biological target: recombinant human CD73 protein with C-terminal 6xHis tag (human) (UniProt P21589); assay: cell-based or functional assay
CD73 on A549 cells = biological target: T1, CD73 on A549 cells; assay: cell-based or functional assay
[2] = biological target: recombinant human CD73 protein with C-terminal 6xHis tag (human) (UniProt P21589); assay: SPR, Biacore T200, antibody captured on CM5 chip, human CD73 injected, 25 C, 1:1 fit
[3] = biological target: T2, recombinant human CD73 protein with …; assay: cell-based or functional assay
[4] = biological target: T2, recombinant human CD73 protein with …; assay: SPR, Biacore T200, antibody captured by anti-mouse Fc IgG on CM5 chip, human CD73 injected, 25 C, 1:1 fit
Procedure: Mouse Antibody Capture Kit, which is a commercialized reagent kit, was purchased from GE. Anti-mouse Fc IgG was fixated on a CM5 sensor chip by amine coupling in order to capture the antibody under test with the coupled anti-mouse Fc IgG. A series of human CD73 proteins having a predetermined concentration gradient were then injected, before samples were taken and tested with the pH 1.7 glycine-HCl regeneration testing chip that came with the reagent kit.
The binding constant (Ka), the dissociation rate constant (Kd), and the equilibrium constant (KD) were calculated with the Biacore T200 evaluation software by combining the model fitting data at a 1:1 ratio.

Row | Molecule | EC50 (µg/mL), Biochemical level, inhibition of CD73 enzyme activity [1] [µg/mL] | EC50 (µg/mL), Cell level (A549), inhibition of CD73 enzyme activity (CD73 on A549 cells) [µg/mL] | Kd [2] [nM] | koff [2] [s⁻¹] | kon [2] [M⁻¹ s⁻¹] | EC50 (µg/mL), Biochemical level, inhibition of CD73 enzyme activity [3] [µg/mL] | Kd [4] [nM] | koff [4] [s⁻¹] | kon [4] [M⁻¹ s⁻¹]
1 | MEDI-9447, anti-CD73 monoclonal antibody of MedImmune LLC | 0.0896 | 0.032 | 0.141 | 3.91e-05 | 278000 |  |  |  | 
2 | B1 |  | 0.0854 |  |  |  | 0.106 | 0.416 | 3.21e-05 | 77200
